According to CN115028723A (dated 2022):

Biological target: T1, 重组人IL-1β (novoprotein, CG93) (human, UniProt P01584 117-269)
T1 construct: The supplier is stated for the immunogen; also called rHuman IL-1β; hIL-1β
Assay: Biacore SPR, antibody captured on Protein A chip, IL-1β as analyte, 1:1 Langmuir fit

Kd: 15.3 pM
koff: 6.01e-05 s⁻¹
kon: 3.93e+06 M⁻¹ s⁻¹
B1: 阳性对照抗体CAN (卡纳单抗, Canakinumab) (antibody, human IgG1, kappa, V domains shown)
VH: QVQLVESGGGVVQPGRSLRLSCAASGFTFSVYGMNWVRQAPGKGLEWVAIIWYDGDNQYYADSVKGRFTISRDNSKNTLYLQMNGLRAEDTAVYYCARDLRTGPFDYWGQGTLVTVSS
VL: EIVLTQSPDFQSVTPKEKVTITCRASQSIGSSLHWYQQKPDQSPKLLIKYASQSFSGVPSRFSGSGSGTDFTLTINSLEAEDAAAYYCHQSSSLPFTFGPGTKVDIKR
notes: Signal peptide added for expression is left out; also called Ilaris
